From patent publication US20240376151A1, “STAPLED PEPTIDES AND METHODS THEREOF” (FOG PHARMACEUTICALS, INC., priority 2022, published 2024) come the findings set out here.

Numbered stars: 1 amine (or outer) side, 2 acyl side, 3 side chain; on linkers, the order of the positions; unused ones are H or OH. Bridge positions count the residues as written; N and C are the ends. Ends that are not written are not given here. Phenylene(1,4-NHCOCH2)2 = O=C(C[*:1])Nc1ccc(NC(=O)C[*:2])cc1

In this assay the target is T1, CHIP (Homo sapiens, UniProt Q9UNE7).
T1 construct: N-term truncated CHIP (also known as STUB1, Uniprot ID: Q9UNE7, residues 23-303); made in house; host or cells: E. coli BL21 CodonPlus
T1 sequence (Q9UNE7 23-303): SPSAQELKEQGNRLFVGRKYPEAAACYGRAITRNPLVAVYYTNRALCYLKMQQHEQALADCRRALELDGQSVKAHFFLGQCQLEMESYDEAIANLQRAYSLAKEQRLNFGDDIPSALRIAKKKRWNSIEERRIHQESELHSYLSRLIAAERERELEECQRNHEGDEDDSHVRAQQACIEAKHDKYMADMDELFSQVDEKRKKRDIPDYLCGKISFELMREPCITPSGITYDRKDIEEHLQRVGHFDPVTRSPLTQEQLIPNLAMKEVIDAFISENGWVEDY
The experiment in a line: Naive Library Presenter Screening (phage, NGS), CHIP. It counts as binding. The settings on record: for interaction data, BLANK: Blank = Media only. On the procedure: To conduct phage library screening, previously described procedures were utilized in accordance with the present disclosure.
Next-generation sequencing was performed as described in accordance with the present disclosure.
Hit ID and Clustering is performed according to a described procedure in accordance with the present disclosure.

Setting [1] is: CHIP clusters (C83, C84), first column.
[2] abbreviates: CHIP clusters (C83, C84), second column.
Where [3] appears, read: CHIP clusters (C83, C84), target concentration 10 nM.
Where [4] appears, read: CHIP clusters (C83, C84), target concentration 30 nM.
The mark [5] stands for this setting: CHIP clusters (C83, C84), target concentration 100 nM.
The mark [6] stands for this setting: CHIP clusters (C83, C84), target concentration 300 nM.
Where [7] appears, read: CHIP clusters (C83, C84), target concentration 1000 nM, first column.
[8] abbreviates: CHIP clusters (C83, C84), target concentration 1000 nM, second column.
[9] abbreviates: CHIP target concentration 10 nM.
Where [10] appears, read: CHIP target concentration 30 nM.
[11] abbreviates: CHIP target concentration 100 nM.
The mark [12] stands for this setting: CHIP target concentration 300 nM.
Setting [13] is: CHIP target concentration 1000 nM, first column.
[14] abbreviates: CHIP target concentration 1000 nM, second column.

With “DPAFFECVRAASICMVD (linker 7-14 via Phenylene(1,4-NHCOCH2)2 (inferred))”, the “interaction data, BLANK” value under setting [1] came out at 0 and the “interaction data, BLANK” value under setting [2] stood at 0. Moreover, the “interaction data at Target Concentration 10” value under setting [3] came to 0. Moreover, the “interaction data at Target Concentration 30” value under setting [4] was 0. The “interaction data at Target Concentration 100” value under setting [5] amounted to 0. The “interaction data at Target Concentration 300” value under setting [6] came out at 51. In addition, the “interaction data at Target Concentration 1000” value is, setting by setting: under setting [7], 41; under setting [8], 54.

Turning to “DPAMWHCQYAAIMCNAN (DPAMWHCQYAAIMCNAN-NH2; linker 7-14 via Phenylene(1,4-NHCOCH2)2 (inferred))”, the “interaction data, BLANK” value runs as follows: under setting [1], 0; under setting [2], 0. In addition, the “interaction data at Target Concentration 10” value under setting [3] stood at 0. Further, the “interaction data at Target Concentration 30” value under setting [4] was found to be 0. The “interaction data at Target Concentration 100” value under setting [5] is 0. Also, the “interaction data at Target Concentration 300” value under setting [6] was 15. The “interaction data at Target Concentration 1000” value runs as follows: under setting [7], 7; under setting [8], 29.

On to “DPAIIWCSQAASICTVD (linker 7-14 via Phenylene(1,4-NHCOCH2)2 (inferred))”, for which the “interaction data, BLANK” value runs as follows: under setting [1], 0; under setting [2], 0. Besides, under setting [3], the “interaction data at Target Concentration 10” value was 0. Moreover, under setting [4], the “interaction data at Target Concentration 30” value turned out to be 0. Moreover, the “interaction data at Target Concentration 100” value under setting [5] is reported as 19. Besides, the “interaction data at Target Concentration 300” value under setting [6] is recorded as 15. Further, the “interaction data at Target Concentration 1000” value by setting is: under setting [7], 23; under setting [8], 24.

Consider “ICYNARLECE (linker 2-9 via Phenylene(1,4-NHCOCH2)2 (inferred))”, for which the “interaction data at Target Concentration 10” value under setting [9] was found to be 1. Also, the “interaction data at Target Concentration 30” value under setting [10] was determined as 2. The “interaction data at Target Concentration 100” value under setting [11] worked out at 13. Moreover, the “interaction data at Target Concentration 300” value under setting [12] is recorded as 16. For the same sequence, the “interaction data at Target Concentration 1000” value runs as follows: under setting [13], 21; under setting [14], 20.

As to “DPALEECTQAAHICMVD (linker 7-14 via Phenylene(1,4-NHCOCH2)2 (inferred); not fully specified (C-terminus))”, the “interaction data, BLANK” value was determined as 0 under setting [1] and 0 under setting [2]. For the same sequence, under setting [3], the “interaction data at Target Concentration 10” value was determined as 0. For the same sequence, the “interaction data at Target Concentration 30” value under setting [4] amounted to 0. In addition, under setting [5], the “interaction data at Target Concentration 100” value is on record as 3. Also, under setting [6], the “interaction data at Target Concentration 300” value is 14. Further, the “interaction data at Target Concentration 1000” value by setting is: under setting [7], 26; under setting [8], 10.

As to “ICWAAWVSCS (linker 2-9 via Phenylene(1,4-NHCOCH2)2 (inferred))”, the “interaction data at Target Concentration 10” value under setting [9] is listed as 0. Further, under setting [10], the “interaction data at Target Concentration 30” value is recorded as 0. Further, the “interaction data at Target Concentration 100” value under setting [11] came out at 0. The “interaction data at Target Concentration 300” value under setting [12] is on record as 25. In addition, the “interaction data at Target Concentration 1000” value is, setting by setting: under setting [13], 42; under setting [14], 17.

On to “DPAFEVCQFAAATCSSN (linker 7-14 via Phenylene(1,4-NHCOCH2)2 (inferred))”, for which the “interaction data, BLANK” value came to 0 under setting [1] and 0 under setting [2]. In addition, the “interaction data at Target Concentration 10” value under setting [3] stood at 0. For the same sequence, the “interaction data at Target Concentration 30” value under setting [4] came to 0. The “interaction data at Target Concentration 100” value under setting [5] came to 8. Further, the “interaction data at Target Concentration 300” value under setting [6] was 10. For the same sequence, the “interaction data at Target Concentration 1000” value stood at 6 under setting [7] and 30 under setting [8].

Turning to “PMCSDAWLFCE (linker 3-10 via Phenylene(1,4-NHCOCH2)2 (inferred))”, the “interaction data at Target Concentration 10” value under setting [9] came out at 0. Moreover, the “interaction data at Target Concentration 30” value under setting [10] is 0. Besides, under setting [11], the “interaction data at Target Concentration 100” value is given as 0. In addition, the “interaction data at Target Concentration 300” value under setting [12] worked out at 74. In addition, the “interaction data at Target Concentration 1000” value runs as follows: under setting [13], 143; under setting [14], 57.

Consider “DPAETFCWDAADICMVD (linker 7-14 via Phenylene(1,4-NHCOCH2)2 (inferred))”, for which the “interaction data, BLANK” value is recorded as 0 under setting [1] and 0 under setting [2]. For the same sequence, the “interaction data at Target Concentration 10” value under setting [3] is recorded as 0. Further, the “interaction data at Target Concentration 30” value under setting [4] came out at 0. For the same sequence, the “interaction data at Target Concentration 100” value under setting [5] is recorded as 1. Also, the “interaction data at Target Concentration 300” value under setting [6] is recorded as 17. In addition, the “interaction data at Target Concentration 1000” value was 7 under setting [7] and 32 under setting [8].

Turning to “PCYSAWITCES (linker 2-9 via Phenylene(1,4-NHCOCH2)2 (inferred))”, the “interaction data at Target Concentration 10” value under setting [9] came to 0. Moreover, the “interaction data at Target Concentration 30” value under setting [10] was found to be 134. In addition, the “interaction data at Target Concentration 100” value under setting [11] was 286. Besides, under setting [12], the “interaction data at Target Concentration 300” value worked out at 457. In addition, the “interaction data at Target Concentration 1000” value is, setting by setting: under setting [13], 563; under setting [14], 538.

As for “DPAQDNCHYAAHICMVD (DPAQDNCHYAAHICMVD-NH2; linker 7-14 via Phenylene(1,4-NHCOCH2)2 (inferred))”, the “interaction data, BLANK” value runs as follows: under setting [1], 0; under setting [2], 0. The “interaction data at Target Concentration 10” value under setting [3] is on record as 0. Also, the “interaction data at Target Concentration 30” value under setting [4] amounted to 0. The “interaction data at Target Concentration 100” value under setting [5] came out at 0. Moreover, under setting [6], the “interaction data at Target Concentration 300” value came out at 47. For the same sequence, the “interaction data at Target Concentration 1000” value came to 25 under setting [7] and 57 under setting [8].

For the sequence “DPAFTRCQFAAAVCNFT (linker 7-14 via Phenylene(1,4-NHCOCH2)2 (inferred))”, the “interaction data, BLANK” value under setting [1] is recorded as 0 and the “interaction data, BLANK” value under setting [2] was 0. Also, the “interaction data at Target Concentration 10” value under setting [3] is 0. Besides, under setting [4], the “interaction data at Target Concentration 30” value was determined as 3. In addition, under setting [5], the “interaction data at Target Concentration 100” value came out at 0. Further, the “interaction data at Target Concentration 300” value under setting [6] came to 6. Moreover, the “interaction data at Target Concentration 1000” value under setting [7] stood at 19 and the “interaction data at Target Concentration 1000” value under setting [8] is given as 28.

As to “DPAFVRCQFAAASCHTI (linker 7-14 via Phenylene(1,4-NHCOCH2)2 (inferred))”, the “interaction data, BLANK” value reads like this: under setting [1], 0; under setting [2], 0. Under setting [3], the “interaction data at Target Concentration 10” value amounted to 0. Besides, the “interaction data at Target Concentration 30” value under setting [4] came out at 0. Also, the “interaction data at Target Concentration 100” value under setting [5] came to 0. The “interaction data at Target Concentration 300” value under setting [6] turned out to be 22. The “interaction data at Target Concentration 1000” value is listed as 27 under setting [7] and 19 under setting [8].

In the case of “DPAFDACQFAAAMCDHQ (linker 7-14 via Phenylene(1,4-NHCOCH2)2 (inferred))”, the “interaction data, BLANK” value under setting [1] stood at 0 and the “interaction data, BLANK” value under setting [2] was determined as 0. Moreover, the “interaction data at Target Concentration 10” value under setting [3] is 0. Further, the “interaction data at Target Concentration 30” value under setting [4] is 30. Besides, the “interaction data at Target Concentration 100” value under setting [5] stood at 23. For the same sequence, the “interaction data at Target Concentration 300” value under setting [6] was determined as 39. Also, the “interaction data at Target Concentration 1000” value is given as 80 under setting [7] and 248 under setting [8].

For “DPAFEQCQFAAAMCLHH (linker 7-14 via Phenylene(1,4-NHCOCH2)2 (inferred))”, the “interaction data, BLANK” value by setting is: under setting [1], 0; under setting [2], 0. The “interaction data at Target Concentration 10” value under setting [3] worked out at 0. Besides, the “interaction data at Target Concentration 30” value under setting [4] is on record as 6. Also, the “interaction data at Target Concentration 100” value under setting [5] was 1. For the same sequence, the “interaction data at Target Concentration 300” value under setting [6] worked out at 17. For the same sequence, the “interaction data at Target Concentration 1000” value came to 42 under setting [7] and 21 under setting [8].

As to “DPAFWQCQFAAATCAHY (linker 7-14 via Phenylene(1,4-NHCOCH2)2 (inferred))”, the “interaction data, BLANK” value runs as follows: under setting [1], 0; under setting [2], 0. Under setting [3], the “interaction data at Target Concentration 10” value is on record as 0. Besides, under setting [4], the “interaction data at Target Concentration 30” value is 0. In addition, the “interaction data at Target Concentration 100” value under setting [5] came out at 19. Moreover, under setting [6], the “interaction data at Target Concentration 300” value is on record as 16. In addition, the “interaction data at Target Concentration 1000” value is 70 under setting [7] and 44 under setting [8].

Regarding “DPAFWRCQFAAATCEHT (linker 7-14 via Phenylene(1,4-NHCOCH2)2 (inferred))”, the “interaction data, BLANK” value under setting [1] was 1 and the “interaction data, BLANK” value under setting [2] amounted to 0. In addition, the “interaction data at Target Concentration 10” value under setting [3] amounted to 2. The “interaction data at Target Concentration 30” value under setting [4] was 3. For the same sequence, the “interaction data at Target Concentration 100” value under setting [5] worked out at 210. Moreover, the “interaction data at Target Concentration 300” value under setting [6] is on record as 321. The “interaction data at Target Concentration 1000” value was 597 under setting [7] and 726 under setting [8].
